This is an account of results in patent US20110059095A1.

Test [1] has as its target full length human PAR-2 (human) (UniProt P55085). Briefly: cell ELISA, 10 ug/ml antibody. (In general: ELISA stands for enzyme-linked immunosorbent assay.)
Test [2] shares this target. As to the kind of experiment: cell-based or functional assay.
Test [3] has as its target full length mouse PAR-2 (mouse) (UniProt P55086). As to the kind of experiment: cell-based or functional assay.
In a further test the target is monkey PAR-2 (monkey). As to the kind of experiment: cell-based or functional assay.

Changes are numbered by the printed parent chain.

Sequence of full length human PAR-2 (human) (P55085 26-397 G138A limits assumed): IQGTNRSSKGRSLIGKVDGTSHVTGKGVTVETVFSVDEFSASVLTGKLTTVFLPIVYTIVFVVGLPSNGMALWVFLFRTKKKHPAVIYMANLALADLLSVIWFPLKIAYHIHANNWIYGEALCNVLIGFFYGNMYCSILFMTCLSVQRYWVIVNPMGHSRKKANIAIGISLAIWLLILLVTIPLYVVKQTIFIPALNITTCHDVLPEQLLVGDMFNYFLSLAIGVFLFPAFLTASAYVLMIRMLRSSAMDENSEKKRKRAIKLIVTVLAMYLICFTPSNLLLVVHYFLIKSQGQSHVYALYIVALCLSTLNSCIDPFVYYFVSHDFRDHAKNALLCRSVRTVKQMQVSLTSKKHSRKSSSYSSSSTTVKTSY
Sequence of full length mouse PAR-2 (mouse) (P55086 other isoform, or with tags, fused parts or gaps limits assumed): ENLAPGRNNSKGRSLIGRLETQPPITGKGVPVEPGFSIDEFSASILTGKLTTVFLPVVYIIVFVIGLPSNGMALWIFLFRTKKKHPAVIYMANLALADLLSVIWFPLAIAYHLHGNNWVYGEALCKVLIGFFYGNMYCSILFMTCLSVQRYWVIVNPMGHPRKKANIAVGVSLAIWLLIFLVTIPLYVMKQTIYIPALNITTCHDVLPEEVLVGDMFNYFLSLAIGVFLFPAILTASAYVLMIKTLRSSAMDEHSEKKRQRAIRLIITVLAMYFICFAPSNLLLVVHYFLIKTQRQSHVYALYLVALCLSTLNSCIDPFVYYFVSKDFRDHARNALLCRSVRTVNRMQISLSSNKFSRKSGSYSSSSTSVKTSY

B1: H2M609N (antibody, V domains shown)
VH: EVQLVESGGGLVQPGRSLRLSCAASGFTFDDYAMHWVRQAPGKGLEWVSGISWNSGSKGFADSVKGRFTISRDNAKNSLYLQMNSLRVEDTALYYCAKENWSFDYWGQGTLVTVSS
VL: DIVMTQTPLSSPVTLGQPASISCRSSQSLVHSDGNIYLSWLQQRPGQPPRLLIYKISNRFSGVPDRFSGSGAGTDFTLKISRVEAEDVGIYYCMQASHFPYTFGQGTKLEIK
Consider B1, for which the A450 ratio (293/D9/hPAR-2rec to 293/D9 cells) in test [1] came out at 1.54.

B2: H1M619N (antibody, V domains shown)
VH: B1 VH with P14A, K58R, F60Y, Y80H, N84Y, V88A
VL: B1 VL with I36T, N58Y, E84A, A85T, I90V, S97T, H98Q, F99L
Regarding B2, the A450 ratio (293/D9/hPAR-2rec to 293/D9 cells) in test [1] is 1.51.

B3: H3M620N (antibody, V domains shown)
VH: EVQLVESGGNVVRPGGSLRLSCAASGFTFDDYGMTWVRQVPGKGLEWVSGINWNGGSTDYADSVKGRFTISRDNAKNSLYLQMNSLRAEDTALYYCARDKGFYGMDVWGQGTTVTVSS
VL: DIVMTQSPDSLAVSLGERATINCKSSQNPLYNSNKKKYLAWYQQKPGQPPKLVIYWASTRESGVPDRFSGSGSGTDFTLTITSLQAEDVAVYYCQQYYSTPYTFGQGTKLEIK
For B3, the A450 ratio (293/D9/hPAR-2rec to 293/D9 cells) in test [1] was 1.24.

B4: Human Kallikrein 14 (enzyme, UniProt Q9P0G3 25-251, looked up)
chain: IIGGHTCTRSSQPWQAALLAGPRRRFLCGGALLSGQWVITAAHCGRPILQVALGKHNLRRWEATQQVLRVVRQVTHPNYNSRTHDNDLMLLQLQQPARIGRAVRPIEVTQACASPGTSCRVSGWGTISSPIARYPASLQCVNINISPDEVCQKAYPRTITPGMVCAGVPQGGKDSCQGDSGGPLVCRGQLQGLVSWGMERCALPGYPGVYTNLCKYRSWIEETMRDK
Regarding B4, the figures for the EC50 of activator, NF-kB-luciferase (in test [2]; in test [3]; with monkey PAR-2 (monkey)) were 0.005 µM, 0.008 µM and 0.0063 µM, respectively.

B5: H4H581P (antibody, human IgG4, V domains shown)
VH: QVQLVESGGGVVQPGRSLRLSCVASGFTFSRYGIHWVRQAPGKGLEWVIVISYDGINKYYADSVKGRFTISRDNSKNTVYLQMNSLRAEDTAVYYCAKGDFWSGYFDYWGQGTLVTVSS
VL: DIVMTQTPLSSPVTLGQPASISCRSSQSLVHSDGNTYLSWLHQRPGQPPRLLIYKISNRFSGVPDRFSGSGAGTDFTLQISRVEAEDVGIYYCMQATQFPTFGGGTKVEIK
Turning to B5, in test [3], the H4H581P IC50, NF-kB-luciferase, Bovine Factor Xa came to 0.34 µM; the H4H581P IC50, NF-kB-luciferase, Human Factor Xa was 0.109 µM; the H4H581P IC50, NF-kB-luciferase, Human Kallikrein 14 was determined as 0.256 µM; the H4H581P IC50, NF-kB-luciferase, Human Pancreatic Trypsin was found to be 0.491 µM.

B6: H2M611N (antibody, V domains shown)
VH: EVQLLESGGGLVQPGGSLRLSCAASGFTFSSYAMTWVRQAPGKGLYWVSAISGSGGSAYYADSVKGRFTISRDNSKNTLYLQMNSLRAEDTAVYYCAKEGDSGYDLDYWGRGTLVTVSS
VL: DIQMTQSPSSLSASVGDRVTITCRARQGISNYLAWLQQKPGKAPKSLIYAASSLQSGVPSKFSGSGSGTDFTLTISSLQPEDFATYYCQQYKSSPLTFGGGTKVEIK
Regarding B6, the A450 ratio (293/D9/hPAR-2rec to 293/D9 cells) in test [1] stood at 1.76.
